Consider 18 sequences from the DeepSol protein solubility set.

A short description of the data set: soluble on expression in E. coli; label from the status in PepcDB or PDB records.
Consider “MEFYNSTNEIPEEMLKGIDLTYPQLTYLPETGILYDNTYNEKTVPIISGGGSGHEPAHVGYVGSGMLAAAVTGPLFIPPKSKNILKAIRQVNSGKGVFVIIKNFEADLKEFNEAIKEARTEGIDVRYIVSHDDISVNAYNFHKRHRGVAGTILLHKILGAFAKEGGSIDEIEQLALSLSPEIYTLGVALAPVHFPHQKTSFVLAEDEVSFGIGIHGEPGYRVEKFEGSERIAIELVNKLKAEINWQKKANKNYILLVNGLGSTTLMELYSFQYDVMRLLELEGLSVKFCKVGNLMTSCDMSGISLTLCSVKDPKWLDYLNVPTGAFAWLEHHHHHH”, for which the “soluble on expression in E. coli” value was “soluble”.
“MGSDKIHHHHHHMSDSEKSNSRLFDLDLLRAIVTVADCGSFTTAAARLHSTQSTVSQKVRRLEEMAGHRLLERGNRDVLPTDAGDTLLGYARRLLALNDELAEALSGATVALTVRIGVPDDFAAGRTTERLAAFNRRYPQVKLEVTSGMSRDLSASYDRGELDLVLLKQRRASREALACWPEKTCWVDSARNPCIDLDPLPIVTFPPRGVYRDEMIAALEAVGRRWHISFTSSSLSGLQSAIADGMGIGLLPLRAVSAGHAVLPKNVGLPAVDVFEVALLHRPAADPMVKALARVLSRVLAEDTRSRPAFEK”: the “soluble on expression in E. coli” value was “not soluble”.
Regarding “MSFDGFFLHHIVEELRSELVNGRIQKINQPFEQELVLQIRSNRQSHRLLLSAHPVFGRIQLTQTTFENPAQPSTFIMVLRKYLQGALIESIEQVENDRIVEITVSNKNEIGDHIQATLIIEIMGKHSNILLVDKSSHKILEVIKHVGFSQNSYRTLLPGSTYIAPPSTKSLNPFTIKDEKLFEILQTQELTAKNLQSLFQGLGRDTANELERILVSEKLSAFRNFFNQETKPCLTETSFSPVPFANQVGEPFANLSDLLDTYYKDKAERDRVKQQASELIRRVENELQKNRHKLKKQEKELLATDNAEEFRQKGELLTTFLHQVPNDQDQVILDNYYTNQPIMIALDKALTPNQNAQRYFKRYQKLKEAVKYLTDLIEETKATILYLESVETVLNQAGLEEIAEIREELIQTGFIRRRQREKIQKRKKLEQYLASDGKTIIYVGRNNLQNEELTFKMARKEELWFHAKDIPGSHVVISGNLDPSDAVKTDAAELAAYFSQGRLSNLVQVDMIEVKKLNKPTGGKPGFVTYTGQKTLRVTPDSKKIASMKKS”, the “soluble on expression in E. coli” value is reported as “not soluble”.
In the case of “MHPTYSAVQARLLEANRLSPELLAKSLCIIGAHHVDYADIYCQRTAYESWHLEEGIVKSGSFQINQGVGVRAVSGDKTAFAYADSLCIDSINRSARAVRAIGAAGGKVSAKMPSETRGKPVCSASDPIAGLDSAAKVALLNKVEAIAKAADPRIVQVMAGLTCEYDMVYLARLDGKHAADIRPMVRLNVTVIAKQGERREQGSAGGGGRYDLAYFDENLVHRFVDAAVKQALTNLESRPAPAGEMTVVLGNGWPGVLLHEAVGHGLEGDFNRKGTSVFSGRIGERVAAKGVTVVDQGDIAGRRGSLNIDDEGNETRRTVLIEDGILVGYMQDETNARLTGTQSTGNGRRESYASAPMPRMTNTFMENGSYEPEEIIASIDKGIYAVNFGGGQVDITSGKFVFSASEAWWVEGGRLQYPVKGATIIGNGPEVLKHVSMIGNDTALDSGVGVCGKEGQSVPVGVGQPTLRIDAGLTVGGSAI”, the “soluble on expression in E. coli” value is “not soluble”.
On to “MGHHHHHHSHMANSAGSMANSAGSMKEGKHFVLVHGACHGGWSWYKLKPLLEAAGHKVTALDLAASGTDLRKIEELRTLYDYTLPLMELMESLSADEKVILVGHSLGGMNLGLAMEKYPQKIYAAVFLAAFMPDSVHNSSFVLEQYNERTPAENWLDTQFLPYGSPEEPLTSMFFGPKFLAHKLYQLCSPEDLALASSLVRPSSLFMEDLSKAKYFTDERFGSVKRVYIVCTEDKGIPEEFQRWQIDNIGVTEAIEIKGADHMAMLCEPQKLCASLLEIAHKYN”, for which the “soluble on expression in E. coli” value is reported as “soluble”.
Next, “MNPIASNSAVTLHFTIKLKDGSVADSTHNQGKPAKLVMGDGSLSPNFEQCLLGMLPGEKKSVALAAQDAFGAPNPDHVHYMDRSKFLGGDLQLEVGTIMAFSGPDGMEIPGIITEIAGDSVTVDFNHPLAGQDITFDVEILSVE”: “not soluble”; “MGSDKIHHHHHHMTIRYTFGGDEFIFVEISESMSLDAFFKGTAITRELRRRNVPGVTEICPANASYQVRYDPDVIEPDTLLALLKTIEAEVGEAALNIDTRIVEVPVLYNDPWTHETLMRFRERHQAPESTDLEYAARVNGKRDIDEFIAAHAGSPWFVSMVGFVAGLPFMYQMVERERQLQVPKYLRPRTDTPKLTVGHGGCFGCIYSVRGAGGYQMFGVTPAPIFDPAQRLDYLRDFMVFFRPGDIVKFKPIDRAEYDAAVAAVEAGTFTLRVKPVRFALEAFLRDPHAYNRSLVEVLDAN”: “not soluble”.
Next, “MGSDKIHHHHHHKDAAYPRAEAQTLDLAQKAIAIRSVRGEGNRTIDVANLFRDALLKGGWQVGDIEVTPVDDTAYIIATWKGSDPSLKPVVISGHMDVVEAKREDWERDPFVPVVENGILYGRGASDMKFDGALALSTLIELRRQGFKPKRTIVIEFSGDEETTMKTSAIIAEKLKNAELVINVDGGGGTLDEATGKPLYWTWQGAEKTYADYRLEVTNPGGHSSAPRPDNAIVQLSQALVKVGAYRFKAEQNDITRGYFEKAAPFTDRPEIAAAMRAFAANPADEKALATLRADPSMVGKVGTTCVPTMLGGGHAENALPQRAFANINCRIFPGHTKEAIMAELAQVVGDPAVKISDVTEGSVASPASPLRPDLMKAVTRAMTKAYPKVPLIPSQASGASDSMWFRALGVPSYGLSPSFSKDSEDFSHGLNERTRLSNIRPGITYYLTLITDLTK”: “not soluble”.
Consider “MAEYSMKELIEWNEKIEEIARAEGLDYYEQEFEICSYEDMIAYETYVGMPSHYPHWSYGKNYERIKTLYKYNLTGLPYEMVINSDPCIAYLMKDNTLLLQILTMAHVYGHNDFFKNNRLFKLGTRAKDTVDMFKNHADRIREYIQDPGIGYAKVEKILNAAHAIRYQISRNIGVRVLSQEEKKKELLERYNKPKSEYPLLEPKSKEEEAPPDFKKIPVEPEEDMLLFFMNYSKLTDWERDILSIVREETLYFLPQIETKIMNEGWASFWHYNILNKLNLEQGLHFEFLKRHNQVIRPVLGQLNPYYIGFRIFEDLKKRYEDDPKKIFEVREVERDQSFIRRYLTRELCEEMNLFEYAKIGNSYIVTEVSDEEGWKKIRDTIANNVGLAGIPVIKVAEWVQKDNTLVLEHEYDGREIELSYAYETMKHIVDLWDGKVMLGTVIDNKKKIIVCNEQKKVTLTDG”, for which the “soluble on expression in E. coli” value was “not soluble”.
Regarding “GPGSMFTQISNAHTEVVTSLVFSPHVVTTCEGGLLCSTSGDDTTALWDLRAGPGVSQRAAHLTGHHVGPVNHALFHPSNAHTLLTASDDRSIGCWDLRRPDRVVGAVSGFQEGVNKMLWLPVTSDGCRGTGGSSSGGGGSVVSACDDGHVYVHALALPDSGSESATVAGAAPVPQVGALVDKFRVSTSTVNDIVLAPNSTSILITASEDCALRSWSLRHAQQMTNTSVGLMEDRLLATLDEFENPVNHVVVVPSGLMAPVESRAAGEDPESSSSRSPAGAAGDAEESADAAAASTGFPRAYQQVHGGDDVEDAEVGSDAGSSAGARQPRRATDISEAAGTACWLLAACSECVFGVDFALRVGEFGTGARAFVGHQDYVRGLEFTSEGKLLTVSDDSTAIEWDLATTDPIRQVKLHEGLVMSSAVSPSRNLLATGTDRGELRVWRLPFATERIGGSP”, the “soluble on expression in E. coli” value was “not soluble”.
In the case of “RYWKPEFHPDNSKSIEEWTDEIHTTLQKIMPEVKSENETAELFLSGGVDSSYILAMSDIEKTGSCGYEEERFDESKLAQQTANILGCKNSRYIITPEEYFASVPYVMYHMEQPTGDASAIVFAIGCKAAAENTNICYSGEGADEFFGGYNIYHKAECYGENLKTFYIGNTNIMNEGEKRKILKKYNPDVLPIEVVKGIYEETEELDTLTNMSNVDIQIWLEGDIYFNIDKMSTAVGLEVRMPLTDTRIFDIASRIPSEYKVKGKENKIAFRTAASKTLPEEIAFRNKLGFIVPIRIWMADDQYNKDIRDKFNSEIADKFFNIDEINEIFNDYISGNSDNWRKIWMIYTFLVWYEIYFVKC”, the “soluble on expression in E. coli” value is “not soluble”.
In the case of “MPGQQATKHESLLDQLSLKGKVVVVTGASGPKGMGIEAARGCAEMGAAVAITYASRAQGAEENVKELEKTYGIKAKAYKCQVDSYESCEKLVKDVVADFGQIDAFIANAGATADSGILDGSVEAWNHVVQVDLNGTFHCAKAVGHHFKERGTGSLVITASMSGHIANFPQEQTSYNVAKAGCIHMARSLANEWRDFARVNSISPGYIDTGLSDFVPKETQQLWHSMIPMGRDGLAKELKGAYVYFASDASTYTTGADLLIDGGYTTR” it was “soluble”; in that of “MSLAEPRYKADIGGGSLKLPESRIIAGLLLEGVTEDQWRHAIEVENVLQRRSPGTAKRQSSLMRNRLETMGPELWQMVRDGSTQVAIQAVFAAAIKHSTLLGDFLDLVVRDQFRMFRPDLPRKMWDQYLEQCRNRDPLMPVWQDSTANKLADCVYRILVEVGYITDSKTYRLKSVRISGEVMSYLRENNEQYVIRCIQVSIEGHHHHHH”, “soluble”; in that of “MHRNYFKKKQNLIFSEKQQSVEKYGDDWVHHFHTANARETFGKKIFGIFFPRNLSIERTRETPTAKEGDLLHNGNY”, “not soluble”.
Next, “MAHHHHHHMCHLCDVPVITPDKGVIQSGCGLHPKKTLGNGGAGGVHPGKNTTQETGFPTTGGPNNQHIHLRLCDLVLPRVEYNILPQIFRGVNRDLRHSWSILGGQCGTVKVRRVSLQHAVGATRLHVSVQETAPPFPLHGVTPPLHPLCGAHKLDGQFTDTAGQRTTRPLYTSHTRRIPTAFSLFYSPFFCVPSSNRAPSSSALHVPLTRRWQKGRRRLGTSHARTPRPHSPK”: “not soluble”; “MFKFHLITKDGKARRGRIYTPHGVIETPVFMPVGTQGTVKAMLHKLLDEIGTQIILGNTYHLYLRPGTEIIKKAGGLHRFISWNKPILTDSGGYQVFSLAKGKFGNRKAKVKVSDEGVEFQDHLQGDKHFFTPEKVVEIQEIFGSDIMMPLDECVEYPVDKNYAEKALKRTINWLERSIKAKKREDQVLFGIVQGAFWKDLRKKAVEETLKFDEFLFGYSIGGLSVGEPKEIMYGMTEVVCELLPEKKPRYLMGVGKPEDILEAVERGVDMFDCVVPTRNARTGTLYTSQGVVDIRHSKWKEDFSPLDPECDCYTCRNFSKAYLRHLFVAEEISAYVLNTIHNLRFYLKMMEEVRKAIEEKRFKELKEKYLQRVKNKL”: “soluble”.
On to “GKGLGRRVLSINEIVGYDAVNQAFNFMDIFKWDPATDTFKFTGKNNSYLLEHKIAPRMGIPETQVRKIYSELDRRSKILRKIHQANITNFYDLFTTLIQLEEAGVIS”, for which the “soluble on expression in E. coli” value is given as “not soluble”.
Regarding “MGSDKIHHHHHHMVCNLAIDAYYGCMADFSHILMTRPDFGDDDREWLHQLVADWQVIADLSFADLLLILQNGEGKYIIAEQCRPSTVMSLRAEDVVGNVVPESLCAELDAAMDSESVFRSSKLRTVGKAKVCNVYAPVRHNGKTLGLVVRETNMATRESNGRYESESISAGKQLYEMIPRGQFPYRNPVMNQRHNARVADGFIVLTVDGIVRYASPNAISCFRRLGSVSTMQGEYLSEIGTKLLHENDPVLETLPLVLSGKAAVDSELDANKAAVSMRSLPLMDANGRVGGIVLCRDVSELRRREKELQTKDATISEIHHRVKNNLQAVSALLRLQARKTKSEEVKKELKEAQRRVQTIAMVHEGLSQTADEIVDYDKVISNLLKMAVDLATMRDQHIDVDFVGKFGMMPAQDATPLSLVLTELITNSVEHGFEGRKEGHITISVGRGGNNLNVVVEDDGTGLADEEHDGMARSSGSGLGTQIINTFVTNDFGGTVHWEPRRGGGTRVVLDMKLCAAQDN”, the “soluble on expression in E. coli” value is listed as “not soluble”.
